Results: article PMC12599920

Biological target: Mushroom body defect coiled-coil domain (Mud^CC)
Experiment: saturation binding (MBP pull-down, gel quantification)
Settings: read off a plot
[1] = right plot, 20 µM MudCC, parent: est. 130

MBP:Hts (110-310), CThelix truncation of the Hts aldolase domain (from UniProt Q02645) R128A
response (right plot, 5 µM MudCC, parent: est. 99): 120 AU | response [1]: 140 AU

3OCR_ΔCT, P. syringae aldolase enzyme with the CThelix deleted FLEaaa
response (10 µM MudCC, parent: est. 110): 27 AU | response (20 µM MudCC, parent: est. 140): 46 AU | response (40 µM MudCC, parent: est. 140): 57 AU

MBP:Hts (110-401), full-length Hts aldolase domain (from UniProt Q02645) R205A; D207A
response (5 µM MudCC, parent: est. 98): 120 AU | response (20 µM MudCC, parent: est. 140): 140 AU

MBP:Hts (110-310), CThelix truncation of the Hts aldolase domain (from UniProt Q02645) Y159A; L162A; E165A
response (left plot, 5 µM MudCC, parent: est. 83): 1 AU | response (left plot, 20 µM MudCC, parent: est. 110): 5 AU

MBP:Hts (110-310), CThelix truncation of the Hts aldolase domain (from UniProt Q02645) H164A; T167A
response (left plot, 5 µM MudCC, parent: est. 110): 100 AU | response (left plot, 20 µM MudCC, parent: est. 130): 120 AU

MBP:Hts (110-401), full-length Hts aldolase domain (from UniProt Q02645) Q151A; E152A
response (5 µM MudCC, parent: est. 98): 93 AU | response (20 µM MudCC, parent: est. 140): 150 AU

MBP:Hts (110-310), CThelix truncation of the Hts aldolase domain (from UniProt Q02645) L139A
response (right plot, 5 µM MudCC, parent: est. 110): 38 AU | response (right plot, 10 µM MudCC, parent: est. 120): 86 AU | response [1]: 140 AU

MBP:Hts (110-401), full-length Hts aldolase domain (from UniProt Q02645) Q177A; V181A
response (5 µM MudCC, parent: est. 98): 110 AU | response (20 µM MudCC, parent: est. 140): 150 AU

MBP:Hts (110-401), full-length Hts aldolase domain (from UniProt Q02645) Y159A; L162A; E165A
response (left plot, 5 µM MudCC, parent: est. 120): 7 AU | response (left plot, 20 µM MudCC, parent: est. 140): 24 AU

MBP:Hts (110-401), full-length Hts aldolase domain (from UniProt Q02645) D310A
response (5 µM MudCC, parent: est. 98): 130 AU | response (20 µM MudCC, parent: est. 140): 150 AU
